Experimental data taken from the Human Domainome abundance scans (Beltran et al. 2025).

B1: Homeobox protein cut-like 1, residues 548 to 629; numbered along this chain, P39880 (parent)
chain: GEEMDTAEIARQVKEQLIKHNIGQRIFGHYVLGLSQGSVSEILARPKPWNKLTVRGKEPFHKMKQFLSDEQNILALRSIQGR

Variants of: B1
Assay: abundance fitness (aPCA) (normalised: wild type 0, dead -1); higher = more abundant; growth selection in yeast, the domain comes from the species named
Details: Homo sapiens

Abundance fitness, by site and new letter:
D69: W -0.387; P -0.75; T -0.181; M -0.231; G -0.267; N -0.015; H -0.182; R -0.207; Y -0.351; V -0.308; A -0.174; L -0.318; F -0.252; I -0.425; E -0.134; K -0.108
H61: S -0.137; R 0.014; V 0.009; K 0.013; Q 0.04; W -0.03; Y 0.067; F 0.069; A -0.07; E 0.021; G -0.342; N -0.11; I 0.075; C -0.134; L 0.071
E58: L -0.121; Q -0.047; Y -0.166; D -0.105; C -0.441; G -0.35; H -0.618; F -0.416; W -0.227; M -0.132; N -0.27; P -0.819; I -0.234; S -0.252; T -0.255; K -0.23; R -0.273; V -0.062; A -0.168
L67: Y -0.609; H -1.21; W -0.817; G -0.848; S -1.01; R -0.979; A -0.736; D -0.876; K -0.918; M -0.284; V -0.243; F -0.341; C -0.498; N -0.582; I -0.303; Q -0.978
E70: V -0.154; F -0.213; Q -0.047; M -0.139; D -0.043; L -0.307; N -0.084; Y -0.152; G -0.126; S -0.083; W -0.217; R -0.055; I -0.187; T -0.121; H 0.001; C -0.118; A -0.026; P 0.026
L52: N -1.1; R -1.1; F -0.915; Q -0.825; I -0.538; Y -0.602; T -0.99; H -1.02; V -0.879; K -1.13; S -0.97; P -0.97
V54: W -0.173; A 0.066; R -0.028; D 0.052; N 0.08; S -0.033; I -0.001; M 0.119; T 0.03; Y -0.033; P 0.036; G -0.04; E 0.136; C -0.063; F -0.094; L 0.028; Q 0.064; K 0.058
F60: W 0.035; Y 0.019; T -0.835; E -0.799; G -0.952; V -0.911; C -0.762; A -0.944; P -0.897; D -0.803; M -0.536; I -0.306; R -1.01; S -0.869; Q -0.761
K62: P -0.989; A -0.201; R -0.126; I -0.16; M -0.231; C -0.413; N -0.532; E -0.506; V -0.307; Y -0.522; L -0.12; S -0.443; T -0.305; G -0.729; W -0.749; F -0.603
G56: Q 0.077; W -0.265; D 0.036; M -0.143; E 0.085; H -0.352; P -0.697; C -0.279; R -0.711; S -0.254; Y -0.313; T -0.333; K -0.595; I -0.282; L -0.098; V -0.343; N -0.22; F -0.224
M63: E -0.872; V -0.886; L -0.423; W -1.02; T -0.777; R -1; Y -0.94; N -1.16; G -1.04; I -0.31; K -0.992; F -0.753; P -0.797; D -0.949; H -1.13; A -0.677
P59: M 0.078; G -0.024; T 0.088; C 0.1; W 0.077; K -0.034; H 0.025; I 0.099; D 0.047; R 0.023; Y 0.025; A 0.091; L 0.133; F 0.052; N 0.113; Q 0.078; E 0.101; S 0.076
Q71: N -0.099; F -0.204; T -0.011; W -0.293; D -0.035; I -0.212; E 0.06; S 0.047; G -0.037; C -0.11; R -0.049; H -0.16; V -0.2; M -0.137; P -0.673
S68: V -0.304; R -0.157; T -0.122; Q -0.049; P -0.656; L -0.088; A -0.041; Y -0.297; I -0.198; H -0.292; K -0.023; D -0.02; E 0.013; C -0.133; F -0.187; W -0.4; M -0.083
T53: A -0.341; E -0.251; N -0.077; Y -0.821; Q -0.369; P -0.254; V -0.671; M -0.45; F -0.55; G -0.032; R -0.767; S 0.049; H -0.432; D 0.116; K -0.686; I -0.521; W -0.566
K57: R 0.013; M -0.152; P -0.663; C -0.393; N -0.601; F -0.742; T -0.408; G -0.525; I -0.284; V -0.455; H -0.426; Y -0.528; Q 0.057; A -0.2; S -0.334; E -0.476; L -0.288; W -0.526
Q65: L -0.082; N 0.022; E 0.053; T -0.029; Y -0.169; P -0.933; M -0.056; S -0.059; I -0.096; G -0.232; A -0.02; K -0.076; V -0.117; W -0.201; C -0.172; F -0.446; R -0.039
F66: L -0.662; K -0.829; W 0.116; G -0.934; M -0.648; C -0.963; A -0.758; R -1.04; Y -0.924; N -0.781; Q -0.791; P -0.77; I -0.573; E -0.887; S -0.829; H -0.966
K64: L -0.064; Y -0.112; S -0.154; N -0.225; W -0.24; M -0.061; P -0.917; G -0.43; F -0.15; T -0.287; H -0.216; E -0.167; C -0.273; A -0.028; V -0.023; D -0.489; R -0.049; Q 0.033
R55: V -0.06; L -0.04; A 0.075; W -0.095; E 0.135; G -0.011; Y -0.096; S 0.004; C -0.051; M -0.028; K 0.066; Q 0.067; T 0.007; P -0.159; F -0.041; H 0.077; I -0.148; N -0.142; D 0.027
